Results: paper PMC10397247
Values belong to the binder of their own block, whether it stands above or below them.

Assays:
Core_INII-es_KKKK = molecular target: T1, Core_INII-es_KKKK; test: two-hybrid library CCmax;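 further: natural log of median RNA to DNA barcode read ratio; higher means stronger binding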
T1 chain: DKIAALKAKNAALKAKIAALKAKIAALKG

Core_INNN-es_KEKE = molecular target: T2, Core_INNN-es_KEKE; test: two-hybrid library CCmax; conditions: mean of both orientations;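 further: natural log of median RNA to DNA barcode read ratio; higher means stronger binding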
T2 chain: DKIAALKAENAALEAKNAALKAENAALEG

4H2696-bH = molecular target: T3, 4H2696-bH; test: two-hybrid library CCNG1;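 further: natural log of median RNA to DNA barcode read ratio; higher means stronger binding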
T3 chain: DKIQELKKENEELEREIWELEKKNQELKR

4H491-bH = molecular target: T4, 4H491-bH; test: two-hybrid library CCNG1;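 further: natural log of median RNA to DNA barcode read ratio; higher means stronger binding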
T4 chain: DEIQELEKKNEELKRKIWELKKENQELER

4H48-bH = molecular target: T5, 4H48-bH; test: two-hybrid library CCNG1
T5 chain: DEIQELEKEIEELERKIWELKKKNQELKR

4H2937-bH = molecular target: T6, 4H2937-bH; test: two-hybrid library CCNG1
T6 chain: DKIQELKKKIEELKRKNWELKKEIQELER

4H342-bH = molecular target: T7, 4H342-bH; test: two-hybrid library CCNG1
T7 chain: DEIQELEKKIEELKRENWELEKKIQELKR

4H19-bH = molecular target: T8, 4H19-bH; test: two-hybrid library CCNG1
T8 chain: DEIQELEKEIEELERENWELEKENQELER

4H2883-bH = molecular target: T9, 4H2883-bH; test: two-hybrid library CCNG1
T9 chain: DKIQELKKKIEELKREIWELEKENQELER

4H2944-bH = molecular target: T10, 4H2944-bH; test: two-hybrid library CCNG1
T10 chain: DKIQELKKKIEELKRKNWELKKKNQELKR

GCN4-SR [1] = molecular target: T11, GCN4-SR; test: two-hybrid library CCNG1
T11 chain: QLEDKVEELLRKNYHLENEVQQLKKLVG

GCN4-SR [2] = molecular target: T11, GCN4-SR; test: two-hybrid library CCmax

- interaction score (Core_INII-es_KKKK): 1.29
Binder: DEIAALEAENAALEAEIAALEAEIAALEG [Core_INII-es_EEEE]

- interaction score (Core_INNN-es_KEKE): 2
Binder: DEIAALEAKNAALKAENAALEAKNAALKG [Core_INNN-es_EKEK]

- interaction score (4H2696-bH): 0.41
- interaction score (4H491-bH): 0.299
- interaction score (4H48-bH): -1.56
- interaction score (4H2937-bH): 0.634
- interaction score (4H342-bH): -0.785
- interaction score (4H19-bH): -0.777
- interaction score (4H2883-bH): 1.05
- interaction score (4H2944-bH): 1.17
Binder: DEIQELEKEIEELERENWELEKENQELER [4H19-bH]

- interaction score (GCN4-SR [1]): -2.35
- interaction score (GCN4-SR [2]): -1.35
Binder: QLEDKVEELLRKNYHLENEVQQLKKLVG [GCN4-SR]
